From patent US20160376555A1, “NOVEL METHODS TO REGENERATE HUMAN LIMBAL STEM CELLS” (The Regents of the University of California, priority 2012, published 2016)

Columns and labels:
[1] = test system: Wnt3a activities; experiment: Wnt reporter gene assay; assay type: cell-based; conditions: Dkk2 at 125 nM
From the text: As discussed above, Wnt/β-catenin and Notch pathways play pivotal roles in the fate determination decision between epidermal and corneal epithelial lineage in mice. In particular, Dkk2 is necessary for corneal development and activation of Notch1 is required to maintain the corneal lineage. Dkk2 alone or in combination with Notch1 activation may facilitate and increase the efficiency of the reprogramming process in humans. Functional recombinant Dkk2 protein can be provided by Dr. Jie Zheng (St. Jude Children's Research Hospital) (see, e.g. Lin et al., Proc Natl Acad Sci USA 2010; 107:4194-4199). It inhibits Wnt3a activities with an IC50 value around 8 nM in the Wnt reporter gene assay(see, e.g. Lujan et al., Proc Natl Acad Sci USA 2012; 109:2527-2532). Therefore, we can use the 3-step coculture protocol as described above and add Dkk2 to the culture medium at various concentrations starting at 8 nM to the Step 1 co-culture, which is the reprogramming step. Phenotypic analysis can be performed in each of the 3 steps to determine the outcome of transdifferentiation by the expression of K12 and K10 in the cultured epithelial cells. The optimal concentration of Dkk2 that achieves the highest portion of K12+ cells in Step 3 can be determined. This concentration of Dkk2 can be used. […]

[2] = test system: Wnt3a activities; conditions: functional recombinant Dkk2 protein; Wnt reporter gene assay; read-out: IC50, inhibition of Wnt3a activities; cited from earlier work

B1: Dkk2: Functional recombinant Dkk2 protein, a Wnt inhibitor (protein, UniProt Q9UBU2 34-259, looked up)
Dickkopf-related protein 2: KLNSIKSSLGGETPGQAANRSAGMYQGLAFGGSKKGKNLGQAYPCSSDKECEVGRYCHSPHQGSSACMVCRRKKKRCHRDGMCCPSTRCNNGICIPVTESILTPHIPALDGTRHRDRNHGHYSNHDLGWQNLGRPHTKMSHIKGHEGDPCLRSSDCIEGFCCARHFWTKICKPVLHQGEVCTKQRKKGSHGLEIFQRCDCAKGLSCKVWKDATYSSKARLHVCQKI
- inhibition [1]: 90%
- IC50 [2]: ~8 nM
